In article PMC10185811 (2023):

B1: GST-FAT10 (natural protein)
chain: MAPNASCLCVHVRSEEWDLMTFDANPYDSVKKIKEHVRSKTKVPVQDQVLLLGSKILKPRRSLSSYGIDKEKTIHLTLKVVKPSDEELPLFLVESGDEAKRHLLQVRRSSSVAQVKAMIETKTGIIPETQIVTCNGKRLEDGKMMADYGIRKGNLLFLACYCIGG
B2: NUB1L (NEDD8 ultimate buster 1 long), tagless (natural protein)
chain: MAQKKYLQAKLTQFLREDRIQLWKPPYTDENKKVGLALKDLAKQYSDRLECCENEVEKVIEEIRCKAIERGTGNDNYRTTGIATIEVFLPPRLKKDRKNLLETRLHITGRELRSKIAETFGLQENYIKIVINKKQLQLGKTLEEQGVAHNVKAMVLELKQSEEDARKNFQLEEEEQNEAKLKEKQIQRTKRGLEILAKRAAETVVDPEMTPYLDIANQTGRSIRIPPSERKALMLAMGYHEKGRAFLKRKEYGIALPCLLDADKYFCECCRELLDTVDNYAVLQLDIVWCYFRLEQLECLDDAEKKLNLAQKCFKNCYGENHQRLVHIKGNCGKEKVLFLRLYLLQGIRNYHSGNDVEAYEYLNKARQLFKELYIDPSKVDNLLQLGFTAQEARLGLRACDGNVDHAATHITNRREELAQIRKEEKEKKRRRLENIRFLKGMGYSTHAAQQVLHAASGNLDEALKILLSNPQMWWLNDSNPETDNRQESPSQENIDRLVYMGFDALVAEAALRVFRGNVQLAAQTLAHNGGSLPPELPLSPEDSLSPPATSPSDSAGTSSASTDEDMETEAVNEILEDIPEHEEDYLDSTLEDEEIIIAEYLSYVENRKSATKKN
B3: NUB1L-bound GST-FAT10 (NUB1L co-incubated with GST-FAT10) (complex)
chain 1: B2 chain
chain 2: B1 chain

How the values were obtained:
His6-RPN1 WT [1] = molecular target: T1, His6-RPN1 WT (human, UniProt Q13200 1-908); experiment: BLI
T1 sequence (Q13200 whole entry): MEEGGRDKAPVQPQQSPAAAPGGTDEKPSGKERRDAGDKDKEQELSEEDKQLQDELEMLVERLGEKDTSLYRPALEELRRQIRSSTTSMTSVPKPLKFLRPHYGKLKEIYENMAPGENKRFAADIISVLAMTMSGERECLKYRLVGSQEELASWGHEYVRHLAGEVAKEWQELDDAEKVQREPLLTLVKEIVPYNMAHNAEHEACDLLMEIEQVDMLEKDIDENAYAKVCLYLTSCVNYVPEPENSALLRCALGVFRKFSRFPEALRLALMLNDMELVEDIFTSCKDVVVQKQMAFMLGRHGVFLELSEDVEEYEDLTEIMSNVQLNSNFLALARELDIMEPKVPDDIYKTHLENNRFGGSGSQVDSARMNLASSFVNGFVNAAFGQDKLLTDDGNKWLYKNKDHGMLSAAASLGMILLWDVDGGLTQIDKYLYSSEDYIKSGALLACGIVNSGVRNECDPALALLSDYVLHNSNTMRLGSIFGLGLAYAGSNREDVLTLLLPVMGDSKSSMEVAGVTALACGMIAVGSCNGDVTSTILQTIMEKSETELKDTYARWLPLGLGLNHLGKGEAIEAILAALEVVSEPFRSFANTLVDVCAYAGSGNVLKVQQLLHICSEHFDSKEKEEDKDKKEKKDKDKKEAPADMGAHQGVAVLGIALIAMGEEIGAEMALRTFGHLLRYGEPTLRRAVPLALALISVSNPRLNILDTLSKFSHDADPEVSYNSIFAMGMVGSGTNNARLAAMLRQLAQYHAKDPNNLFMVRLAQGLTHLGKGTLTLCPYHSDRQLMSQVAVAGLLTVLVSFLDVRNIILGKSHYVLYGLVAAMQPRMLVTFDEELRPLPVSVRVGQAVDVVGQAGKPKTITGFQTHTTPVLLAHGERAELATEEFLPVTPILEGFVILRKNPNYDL

His6-RPN1 WT [2] = molecular target: T1, His6-RPN1 WT; experiment: BLI; in presence of GST; unit inferred, M assumed
His6-RPN1 WT [3] = molecular target: T1, His6-RPN1 WT; experiment: BLI; NUB1L pre-bound to GST-FAT10; unit inferred, M assumed

Binder	Kd (His6-RPN1 WT [1]) [µM]	Kd (His6-RPN1 WT [2]) [µM]	Kd (His6-RPN1 WT [3]) [µM]
B1	4040	–	–
B2	1.71	1.56	–
B3	–	–	0.432
